Measurements: patent US20260274955A1 (JANUX THERAPEUTICS, published 2026)

How the values were obtained:
[1] = target: anti-CD28 Fab (SEQ ID NOs: 202, 203); assay: phage ELISA, Fab on plate, CD28 antigen as competitor;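 also: wells pre-incubated with CD28 antigen in blocking buffer (reference: blocking buffer only) before adding crude clonal phage supernatant, bound phage read with HRP-coupled anti-M13 antibody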
Description: After panning, phage infected bacteria were plated out and colonies picked into 96 well blocks. Clonal phage was then amplified and separated from bacterial cells via centrifugation.
Clonal phage were harvested as crude supernatants and screened via standard ELISAs. […] Prior to the addition of clonal phage, wells were incubated with blocking buffer and CD28 antigen or blocking buffer alone. Without washing or aspirating, clonal phage supernatants were then added to the wells and incubated for a short time. Wells were then washed followed by detection of bound phage using a horse radish conjugated anti-M13 antibody. Clonal phage of interest were then sent for sequence analysis.

[2] = target: anti-CD28 Fab (SEQ ID NOs: 202, 203); assay: phage ELISA, Fab on plate;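 also: ELISA of crude clonal phage supernatants on the plate, wells preloaded with CD28 antigen or only blocking buffer, captured phage read out via HRP-linked anti-M13 antibody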

anti-CD28 Fab (SEQ ID NOs: 202, 203), sequence (VH, as listed by the source, chain 1 of 2): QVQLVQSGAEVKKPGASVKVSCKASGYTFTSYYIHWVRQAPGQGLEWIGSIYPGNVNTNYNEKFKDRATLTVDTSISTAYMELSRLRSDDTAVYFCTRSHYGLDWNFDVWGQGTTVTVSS
anti-CD28 Fab (SEQ ID NOs: 202, 203), sequence (VL, as listed by the source, chain 2 of 2): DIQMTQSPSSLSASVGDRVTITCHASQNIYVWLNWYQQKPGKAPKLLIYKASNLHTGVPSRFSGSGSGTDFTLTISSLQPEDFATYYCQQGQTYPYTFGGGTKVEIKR

Binder | Anti-CD28 Fab signal in the presence of CD28 [1] | Anti-CD28 Fab signal [2]
RCAAVFSYTWPPCL [Phage-1171] | 0.07 | 1.29
TCAAGANWHWPWCF [Phage-1114] | 0.15 | 1.46
WCDQFFHYKWPLCL [Phage-1126] | 0.07 | 1.42
SCAAGATYTWPFCL [Phage-1170] | 0.07 | 1.29
TCAAGATYTWPTCF [Phage-1108] | 0.05 | 1.48
SCAAGAMWEWPKCF [Phage-1163] | 0.09 | 1.32
TCAAGAHYLWPHCL [Phage-1104] | 0.12 | 1.5
PCAAGAMWAWPYCL [Phage-1105] | 0.05 | 1.49
LCAAGATYPWPICL [Phage-1115] | 0.08 | 1.46
TCAAGATYSWPDCF [Phage-1102] | 0.06 | 1.51
TCSAGATYTWPSCF [Phage-1125] | 0.06 | 1.42
TCAAGATWLWPWCL [Phage-1182] | 0.07 | 1.23
SCAAGATYVWPMCF [Phage-1127] | 0.07 | 1.42
TCSAGASWGWPWCL [Phage-1185] | 0.07 | 1.22
TCAAGAAYTWPVCF [Phage-1162] | 0.08 | 1.32
TCAAGAVWTWPICF [Phage-1183] | 0.05 | 1.23
LCAAGAYYPWPLCF [Phage-1173] | 0.06 | 1.28
TCSAGAHYSWPKCF [Phage-1159] | 0.07 | 1.33
TCAAGATYEWPSCL [Phage-1165] | 0.09 | 1.32
TCSAGATYMWPACF [Phage-1120] | 0.1 | 1.44
TCSAGATYKWPACF [Phage-1172] | 0.05 | 1.29
TCSAGATYAWPACF [Phage-1121] | 0.08 | 1.44
SCAAGAHYPWPECL [Phage-1160] | 0.05 | 1.32
TCADGAFWQWPVCL [Phage-1184] | 0.07 | 1.22
TCTAGFSYKWPTCL [Phage-1174] | 0.09 | 1.28
TCSAGATYSWPYCL [Phage-1186] | 0.07 | 1.22
SCADGAIWEWPWCF [Phage-1164] | 0.07 | 1.32
SCSAGALWKWPVCF [Phage-1116] | 0.07 | 1.45

Binder | Anti-CD28 Fab signal in the presence of CD28 [1] | Anti-CD28 Fab signal [2]
LCAAGAAWEWPMCF [Phage-1167] | 0.06 | 1.3
TCEDGFHFSWPECF [Phage-1123] | 0.07 | 1.44
TCSAGFSYKWPWCW [Phage-1117] | 0.06 | 1.45
NCAAGAMYSWPTCL [Phage-1178] | 0.07 | 1.25
SCSAGAMYTWPTCL [Phage-1166] | 0.08 | 1.31
SCSAGATYEWPYCF [Phage-1113] | 0.06 | 1.47
SCSAGATYQWPYCF [Phage-1176] | 0.06 | 1.26
TCSAGATYKWPVCL [Phage-1112] | 0.06 | 1.47
SCAAGATYSWPACL [Phage-1177] | 0.07 | 1.25
LCAAGATYPWPDCV [Phage-1188] | 0.05 | 1.21
SCAEVFNYVWPFCF [Phage-1161] | 0.07 | 1.32
TCAAGAMYQWPECF [Phage-1110] | 0.06 | 1.48
SCAAGATWKWPECL [Phage-1181] | 0.07 | 1.24
SCSAGAMYQWPLCF [Phage-1118] | 0.09 | 1.44
TCAAGAHYTWPTCL [Phage-1111] | 0.07 | 1.47
TCAAGASWEWPACL [Phage-1109] | 0.08 | 1.48
TCAAGANWPWPECL [Phage-1189] | 0.08 | 1.21
QCAAGAMWTWPVCF [Phage-1103] | 0.07 | 1.5
RCAAGAMWTWPACF [Phage-1179] | 0.06 | 1.25
SCSAGATYTWPACL [Phage-1158] | 0.07 | 1.34
TCAAGAHYSWPFCM [Phage-1128] | 0.07 | 1.42
LCEEFFHYSWPLCL [Phage-1190] | 0.06 | 1.21
TCAAGVPYKWPPCL [Phage-1169] | 0.06 | 1.29
TCAAGATYMWPVCL [Phage-1180] | 0.07 | 1.24
TCAAGVHFGWPLCF [Phage-1107] | 0.07 | 1.49
WCGVGMDWRWPECL [Phage-1122] | 0.16 | 1.44
QCSAGATYAWPFCL [Phage-1168] | 0.08 | 1.29
